Assay results as given in patent publication US20210139565A1 (GOVERNMENT OF THE UNITED STATES AS REPRESENTED BY THE …, published 2021).
Numbering of substitutions follows the chain as printed.

Tests used:
Y. pestis YscF protein = molecular target: T1, Y. pestis YscF protein (Yersinia pestis KIM5, UniProt O68691 1-87); test: ELISA of periplasmic extract on YscF antigen and on blank wells, OD405
T1 construct: also called YscF antigen
T1 sequence: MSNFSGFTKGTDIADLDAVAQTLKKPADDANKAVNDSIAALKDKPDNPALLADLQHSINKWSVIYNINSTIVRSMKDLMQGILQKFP

Y. pestis F1 protein [1] = molecular target: T2, Y. pestis F1 protein (Yersinia pestis KIM5, UniProt P26948 22-170); test: SPR, BIACORE, F1 immobilized on CM5 chip
T2 construct: also called F1 antigen; Fl

Y. pestis F1 protein [2] = molecular target: T2, Y. pestis F1 protein; test: Microcal (calorimetry)
Y. pestis LcrV protein [3] = molecular target: T3, Y. pestis LcrV protein (Yersinia pestis KIM5, UniProt P0C7U7 1-326); test: SPR, BIACORE T200, LcrV on CM5 chip, kd/ka
T3 construct: also called LcrV antigen

Y. pestis LcrV protein [4] = molecular target: T3, Y. pestis LcrV protein; test: SPR, BIACORE, LcrV immobilized on CM5 chip
Y. pestis LcrV protein [5] = molecular target: T3, Y. pestis LcrV protein; test: SPR, BIACORE T200, LcrV on CM5 chip, 1:1 model
Y. pestis LcrV protein [6] = molecular target: T3, Y. pestis LcrV protein; test: Microcal (calorimetry)

T2 sequence (P26948 22-170 limits assumed): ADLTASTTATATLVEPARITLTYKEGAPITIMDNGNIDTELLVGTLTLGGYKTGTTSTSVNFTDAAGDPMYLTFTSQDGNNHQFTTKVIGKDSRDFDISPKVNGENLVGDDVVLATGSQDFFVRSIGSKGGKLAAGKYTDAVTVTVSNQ
T3 sequence (P0C7U7 whole entry): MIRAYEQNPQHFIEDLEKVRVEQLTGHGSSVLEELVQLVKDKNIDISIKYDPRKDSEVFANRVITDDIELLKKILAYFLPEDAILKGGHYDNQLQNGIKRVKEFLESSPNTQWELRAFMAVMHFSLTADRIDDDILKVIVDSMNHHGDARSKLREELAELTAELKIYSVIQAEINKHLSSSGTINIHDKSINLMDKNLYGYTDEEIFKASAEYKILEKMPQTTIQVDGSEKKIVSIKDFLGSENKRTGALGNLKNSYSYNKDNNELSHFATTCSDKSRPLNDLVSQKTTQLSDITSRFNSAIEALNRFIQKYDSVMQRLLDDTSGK

B1: 3yscf75 (VHH)
VHH: QVQLQESGGGLVQAGDSRILSCTASGRTFGRPFRYTMGWFRRAPGKEREFVGGITRSGNNIYYSDSVKGRFTISRDNAKNTVYLQMNSLKPEDTAVYYCNADWGWRNYWGQGTQVTVSS
binding result (Y. pestis YscF protein): binds

B2: 4F1 (VHH)
VHH: QVQLQESGGGLVQPGGSLSLSCSASGIIFSDYALTWYRQAPGKQREWVAQITRSQNINYTGSVKGRFTVSRDNAKNTVHLQMNSLKPEDTAVYYCHAYDGRRPPYWGQGTQVTVSS
Kd (Y. pestis F1 protein [1]): 520 nM

B3: 4F34 (VHH)
VHH: B2 VHH with L11S
Kd (Y. pestis F1 protein [1]): 390 nM

B4: 3F61 (VHH)
VHH: B2 VHH with S19R, T90A
Kd (Y. pestis F1 protein [1]): 68 nM
Kd (Y. pestis F1 protein [2]): 290 nM

B5: 4F6 (VHH)
VHH: B2 VHH with L11S, P103R, P104T
Kd (Y. pestis F1 protein [1]): 34 nM
Kd (Y. pestis F1 protein [2]): 80 nM

B6: 3yscf24 (VHH)
VHH: QVQLQESGGGLVQAGGSLKLSCTASQRTFSRYSLGWFRQAPGEERVFVAATTWSGISSDYADSVKGRFTISRDNAKNTGYLQMNNLKPEDTGVYYCAAGRSSWFAPWLTPYEYDYWGRGTQVTVSS
binding result (Y. pestis YscF protein): binds

B7: 3yscf142 (VHH)
VHH: QVQLQESGGGLVQAGGSLRLSCAASGRTFSSHAMAWFRQGPGEERQFLAAIRWNGDNIHYSDSAKGRFTISRDLAKNTLYLQMNSLKPEDTAVYYCARGVYDYWGQGTQVTVSS
binding result (Y. pestis YscF protein): binds

B8: 3yscf15 (VHH)
VHH: QVQLQESGGGLVQAGGSLRLSCAVSGRTFSRYAMGWFRQAPGKEREFVAAISWSGSSTYYADSVKGRFTISRDHAKNVMYLQMNGLKPEDTGVYVCARPAYGLRPPYNYRGQGTQVTVSS
binding result (Y. pestis YscF protein): binds

B9: 4F59 (VHH)
VHH: QVQLQESGGGLVRPGGSLRLSCEASGTTFRSLVMKWYRQAPGKEREWVAFISSPGDRTRYTEAVKGRFTISRDNAKNALYLQMNGLKPEDTAVYYCNANGIYWGKGTQVTVSS
Kd (Y. pestis F1 protein [1]): 27 nM
Kd (Y. pestis F1 protein [2]): 83 nM

B10: 1LCRV13 (VHH)
VHH: QVQLQESGGGLVRPGGSLKLSCAASGFTFNWYTMAWYRQVPGEERKMVATITGASGDTKYADSVKGRFTISRDNAKNTVTLQMNSLKPGDTAVYYCHAYLTYDSGSVKGVNYWGQGTQVTVSS
Kd (Y. pestis LcrV protein [3]): 0.00063 nM
Kd (Y. pestis LcrV protein [4]): 0.00063 nM
koff (Y. pestis LcrV protein [5]): 1.6e-07 s⁻¹
kon (Y. pestis LcrV protein [5]): 250000 M⁻¹ s⁻¹
Kd (Y. pestis LcrV protein [6]): 3.2 nM

B11: 1LCRV81 (VHH)
VHH: B10 VHH with L11S, R13Q, F68S, Y99C
Kd (Y. pestis LcrV protein [3]): 3.5 nM
Kd (Y. pestis LcrV protein [4]): 3.5 nM
koff (Y. pestis LcrV protein [5]): 0.00063 s⁻¹
kon (Y. pestis LcrV protein [5]): 180000 M⁻¹ s⁻¹

B12: 1LCRV28 (VHH)
VHH: QVQLQESGGGLVQPGGSLRLSCAASGGTLGYYAIGWFRQAPGKEREAVSCITSSDTSAYYADSAKGRFTISRDNAKNTMYLQMNNLKPEDTAVYYCAAGYYFRDYSDSYYYTGTGMKVWGKGTQVTVSS
Kd (Y. pestis LcrV protein [3]): 0.19 nM
Kd (Y. pestis LcrV protein [4]): 0.19 nM
koff (Y. pestis LcrV protein [5]): 8.1e-05 s⁻¹
kon (Y. pestis LcrV protein [5]): 430000 M⁻¹ s⁻¹
Kd (Y. pestis LcrV protein [6]): 0.2 nM

B13: 1LCRV32 (VHH)
VHH: QVQLQESGGGMVEPGGSLRLSCAASGFRFSSYAMSWVRQAPGKGLERVSAINSDGDKTSYADSVKGRFTISRDNARNTLYLQMSNLKPEDTAVYYCADRDLYCSGSMCKDVLGGARYDFRGQGTQVTVSS
Kd (Y. pestis LcrV protein [3]): 22 nM
Kd (Y. pestis LcrV protein [4]): 22 nM
koff (Y. pestis LcrV protein [5]): 0.0073 s⁻¹
kon (Y. pestis LcrV protein [5]): 340000 M⁻¹ s⁻¹
Kd (Y. pestis LcrV protein [6]): 26 nM

B14: 1LCRV31 (VHH)
VHH: QVQLQESGGGLVQPGGSLGLSCAASGSLLNIYAMGWYRQAPGRQRELVATVTSSGTAEYADSVKGRFTISRDNAKNTVYLQMNSLRPEDTGVYYCNAHLRYGDYVRGPPEYNYWGQGTQVTVSS
Kd (Y. pestis LcrV protein [3]): 0.0019 nM
Kd (Y. pestis LcrV protein [4]): 0.0019 nM
koff (Y. pestis LcrV protein [5]): 3.1e-07 s⁻¹
kon (Y. pestis LcrV protein [5]): 170000 M⁻¹ s⁻¹
Kd (Y. pestis LcrV protein [6]): 0.76 nM

B15: 3yscf57 (VHH)
VHH: QVQLQESGGGLVQAGGSLRLSCAASGRTWRAYYMGWFRQAPGKEREFVAVMSRSGGTTSYADSVKGRFTISRDNAKNTVYLQMNNLAPEDTATYYCKAGGGMYGPDLYGMTYWGKGTQVTVSS
binding result (Y. pestis YscF protein): binds

B16: 2LCRV11 (VHH)
VHH: QVQLQESGGGLVQPGGSTRLSCAASGFTLDIYAIGWFRQAPGKEHEGVSWIVGNDGRTYYIDSVKGRFTISRDNAKNTVYLEMNSLKPEDTAVYYCAAKFWPRYYSGRPPVGRDGYDYWGQGTQVTVSS
Kd (Y. pestis LcrV protein [3]): 8.2 nM
Kd (Y. pestis LcrV protein [4]): 8.2 nM
koff (Y. pestis LcrV protein [5]): 0.0072 s⁻¹
kon (Y. pestis LcrV protein [5]): 880000 M⁻¹ s⁻¹

B17: 3yscf140 (VHH)
VHH: QVQLQESGGGLVQAGGSLRLACAASGETVDDLAIGWFRQAPGKEREEISCISGSDGSTYYADSLSGRFTISRDNVKNTVYLQMNSLKLEDTAVYYCYAEIYDRRWYRNDYWGQGTQVTVSS
binding result (Y. pestis YscF protein): binds

B18: 3F1 (VHH)
VHH: QVQLQESGGGLVQPGGSLRLSCAASGFTFSTSAMSWIRQPPGKAREVVATITSAGGSISYVNSVKGRFTISRDNAKNTLYLQMNMLKPEDTAVYYCARLVNLAQTGQGTQVTVSS
Kd (Y. pestis F1 protein [1]): 97 nM
Kd (Y. pestis F1 protein [2]): 110 nM

B19: 3F59 (VHH)
VHH: QVQLQESGGGLVQPGGSLRLSCAASGFTFSSYAMSWVRLAPGKGLEWVSTINIAGGITSYADSVKGRFTISRDNAKNTLYLQMNSLKPEDTAVYYCAKTAANWSAQRGQGTQVTVSS
Kd (Y. pestis F1 protein [1]): 5.9 nM

B20: 3F5 (VHH)
VHH: QVQLQESGGGLVQSGDSLRLSCAASGFTFSNYAMSWVRQAPGKGLEWVSTINSGGGSTSYAYSVKGRFTISRDNAKNTLYLQMNSLKPEDTAVYYCAKTASHIPLSQGTQVTVSS
Kd (Y. pestis F1 protein [1]): 47 nM
Kd (Y. pestis F1 protein [2]): 83 nM

B21: 3yscf124 (VHH)
VHH: QVQLQESGGGLVQAGGSLRLSCVASGRAFSNYAMAWFRQAPGKEREFVAANWRSGGLTDYADSVKGRFTISRDDAKNTVYLQMNSLKPEDTAVYYCAAGGGSRWYGRTTASWYDYWGQGTQVTVSS
binding result (Y. pestis YscF protein): binds

B22: 3F55 (VHH)
VHH: QVQLQESGGGLVQAGGSLRLSCAVSGMMYIREAIRWYRQAPGKQREWVAFVSSTGNPRYTDSVKGRFTISRDNAKNTVYLQMNSLTPEDTAVYYCNTYLGSRDYWGQGTQVTVSS
Kd (Y. pestis F1 protein [1]): 2.2 nM
Kd (Y. pestis F1 protein [2]): 190 nM

B23: 3F85 (VHH)
VHH: B22 VHH with A14P, E32Y, A33T, I34M, F50V, R58H, T60A
Kd (Y. pestis F1 protein [1]): 15 nM
Kd (Y. pestis F1 protein [2]): 110 nM

B24: 1LCRV47 (VHH)
VHH: QVQLQESGGGLVQPGGSLILSCTISGASLRDRRVTWSRQGPGKSLEIIAVMAPDYGVHYFGSLEGRVAVRGDVVKNTVYLQVNALKPEDTAIYWCSMGNIRGLGTQVTVSS
Kd (Y. pestis LcrV protein [4]): > 1000 nM
